Measurements published in US20230295308A1, “ANTAGONISTIC BIPARATOPIC ANTIBODIES THAT SPECIFICALLY BIND FIBROBLAST GROWTH FACTOR RECEPTOR 2 AND METHODS OF USING SAME” (The Broad Institute, Inc., priority 2020, published 2023).
“Also recorded” adds a separate entry of the source.

Columns and labels:
[1] = test system: NIH3T3 cells transformed with FGFR2-BICC1, FGFR2-AHCYL1, and FGFR2-PHGDH fusions; assay: growth of NIH3T3 cells transformed with FGFR2 fusions (FIG. 5); format: cell-based
From the text: (§1) NIH3T3 cells transformed with FGFR2-BICC1, FGFR2-AHCYL1, and FGFR2-PHGDH fusions were also sensitive to BGJ398 treatment (FIG. 5).

[2] = test system: FGFR2-fusion transformed BaF3 cells; assay: viability assay of BaF3 cells expressing FGFR2 fusions (FIG. 2); format: cell-based
From the text: A table showing IC50 (μM) is also provided.
as §1

[3] = test system: FGFR2 fusion-positive ICC; conditions: phase II trial; cited from earlier work
[4] = molecular target: FGFR2b alpha IIIb antigen (UniProt P21802); assay: SPR (Biacore), antibody immobilized, FGFR2b alpha IIIb in flow
[5] = molecular target: FGFR2b alpha IIIb antigen (UniProt P21802); assay: SPR (Biacore), KD matrix by the two arms; unit M from FIG. 17B and paragraph 180; FIG. 17B prints 9.1E-10 for the same antibody
[6] = test system: NIH3T3 cells overexpressing FGFR2-BICC1 fusion; assay: NIH3T3 FGFR2-BICC1 cell confluency, Incucyte (FIGS. 19A-19E); format: cell-based; conditions: 60 hours, 0.013-1 μM
Method: FIGS. 19A-19E present graphs showing the ability of biparatopic antibodies to impact FGFR2-fusion driven cell growth in NIH3T3 cells molecularly engineered to overexpress FGFR2-BICC1 fusion. […] The nomenclature of the biparatopic antibodies is based on the designations and descriptions of the parental antibodies presented in FIG. 7B.
(§2) The impact of biparatopic antibodies on FGFR2-fusion driven cell growth was assessed in a cell-based assay using biparatopic antibodies that bind to the ECD of FGFR2 and generated as described supra (Example 4). As described herein, the biparatopic antibodies were added to cultures of cells (e.g., NIH3T3 cells or BaF3 cells) molecularly engineered to overexpress FGFR2 fusion.
For assays using NIH3T3 cells, (FIGS. 19A-19E), NIH3T3 cells overexpressing a FGFR2-BICC1 fusion construct were plated in 384 black well plates at a concentration of 1000 cells/well overnight. 6 parental antibodies and 13 biparatopic antibodies were added to each well in duplicates at various concentrations ranging from 1 μM to 0.013 μM (1 μM, 0.833 μM, 0.600 μM, 0.450 μM, 0.316 μM, 0.233 μM, 0.166 μM, 0.125 μM, 0.091 μM, 0.066 μM, 0.048 μM, 0.035 μM, 0.025 μM, 0.018 μM, and 0.013 μM). The cell confluency was measured using Incucyte at 60 hours post treatment, and the IC50 curves were generated using non-linear fit in PRISM 9 software.

[7] = test system: BaF3 cells overexpressing FGFR2-PHGDH fusion; assay: BaF3 FGFR2-PHGDH cell survival, CellTiter-Glo (FIGS. 18A-18D); format: cell-based; conditions: no IL3, no FGF, 5 days, 0.013-1 μM
From the text: FIGS. 18A-18D present graphs showing the ability of biparatopic antibodies to impact FGFR2-fusion driven cell growth in BaF3 cells molecularly engineered to overexpress FGFR2-PHGDH fusion. […] These biparatopic antibodies were also more efficient at inhibiting growth of BaF3 cells overexpressing the FGFR2-PHGDH fusion compared to their parental antibodies. The nomenclature of the biparatopic antibodies is based on the designations and descriptions of the parental antibodies presented in FIG. 7B.
as §2
In particular, for assays using BaF3 cells (FIGS. 18A-18D), BaF3 cells overexpressing empty vector control or FGFR2-PHGDH fusion construct were plated in the absence of IL3 and FGF in 384 black well plates at a concentration of 750 cells/well overnight. […] The cell survival was measured using CellTiter-Glo at 5 days post treatment and the IC50 curves were generated using non-linear fit in PRISM 9 software. […]

Row | Molecule | sensitivity of NIH3T3 cells transformed with FGFR2 fusions [1] | sensitivity of FGFR2-fusion transformed BaF3 cells (viability) [2] | efficacy in patients with FGFR2 fusion-positive ICC [3] | Binding Stoichiometry [4] | Kd [4] | Kd [5] | inhibition of growth of NIH3T3 cells overexpressing FGFR2-BICC1 compared to parental antibodies [6] | inhibition of growth of BaF3 cells overexpressing FGFR2-PHGDH compared to control cells overexpressing empty vector [7]
1 | CCN1CCN(c2ccc(Nc3cc(N(C)C(=O)Nc4c(Cl)c(OC)cc(OC)c4Cl)ncn3)cc2)CC1 [NVP-BGJ398] | sensitive | sensitive; also recorded: showed sensitivity | encouraging efficacy |  |  |  |  | 
2 | Biparatopic antibody B/N12 (bispecific antibody, V domains shown) VH 1: EVQLLESGGGLVQPGGSLRLSCAASGFTFSSYAMSWVRQAPGKGLEWVSAISGSGTSTYYADSVKGRFTISRDNSKNTLYLQMNSLRAEDTAVYYCARVRYNWNHGDWFDPWGQGTLVTVSS VL 1: QSVLTQPPSASGTPGQRVTISCSGSSSNIGNNYVSWYQQLPGTAPKLLIYENYNRPAGVPDRFSGSKSGTSASLAISGLRSEDEADYYCSSWDDSLNYWVFGGGTKLTVLG VH 2: QVQLVQSGAEVKKPGESLKISCKGSGYSFTNYYIHWVRQMPGKGLEWMGAIYPDNSDTTYSPSFQGQVTISADKSISTAYLQWSSLKASDTAMYYCARGADIWGQGTLVTVSS VL 2: DIQMTQSPSSLSASVGDRVTITCRASQDIDPYLSNWYQQKPGKAPKLLIYDASNLQSGVPSRFSGSGSGTDFTLTISSLQPEDFATYYCQQTTSHPYTFGQGTKVEIK |  |  |  | 1.3 | 910 pM | 820 pM | more efficient and potent; also recorded: more effective and potent | more efficient and potent; also recorded: more effective and potent
